The target in this experiment is human claudin-1 (human) (UniProt O95832). The experiment can be described thus: confocal fluorescence on SW620 cells with control siRNA versus CLDN1 siRNA; non-significant.

Experimental findings from patent publication US20180052165A1 are described below.

Sequence of human claudin-1 (human) (O95832 whole entry): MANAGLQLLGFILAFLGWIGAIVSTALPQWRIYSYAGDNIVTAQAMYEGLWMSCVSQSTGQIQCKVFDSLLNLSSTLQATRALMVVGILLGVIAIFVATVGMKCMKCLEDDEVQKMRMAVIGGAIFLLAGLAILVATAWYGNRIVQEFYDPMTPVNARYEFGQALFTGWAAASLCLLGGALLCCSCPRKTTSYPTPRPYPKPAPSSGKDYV

For the substance “SPT*-Cy5.5 (control scrambled peptide SPTPSSR labeled with Cy5.5 via the GGGSK linker)”, the fold-change of signal, siCL versus siCLDN1 cells turned out to be 0.8 fold.
